In patent US20160272694A1:
One block for each substance: values may come before it.

Experiments:
hEDAR-mFc (human) [1] = target: hEDAR-mFc (human) (UniProt Q9UNE0); experiment: sandwich ELISA: hEDAR-mFc coated, anti-human IgG (Fc) CH2-HRP detection; EDA-A1 6.25 ng/mL, batch 7
hEDAR-mFc (human) [2] = target: hEDAR-mFc (human) (UniProt Q9UNE0); experiment: sandwich ELISA: hEDAR-mFc coated, anti-human IgG (Fc) CH2-HRP detection; EDA-A1 with hFc, nominal 25 ng/mL, batch 7
hEDAR-mFc (human) [3] = target: hEDAR-mFc (human) (UniProt Q9UNE0); experiment: sandwich ELISA: hEDAR-mFc coated, anti-human IgG (Fc) CH2-HRP detection; EDA-A1 with hFc, nominal 100 ng/mL, batch 7
hEDAR-mFc (human) [4] = target: hEDAR-mFc (human) (UniProt Q9UNE0); experiment: sandwich ELISA: hEDAR-mFc coated, anti-human IgG (Fc) CH2-HRP detection; EDA-A1 25 ng/mL, batch 7
hEDAR-mFc (human) [5] = target: hEDAR-mFc (human) (UniProt Q9UNE0); experiment: sandwich ELISA: hEDAR-mFc coated, anti-human IgG (Fc) CH2-HRP detection; EDA-A1 with hFc, nominal 3.13 ng/mL, batch 7
hEDAR-mFc (human) [6] = target: hEDAR-mFc (human) (UniProt Q9UNE0); experiment: sandwich ELISA: hEDAR-mFc coated, anti-human IgG (Fc) CH2-HRP detection; EDA-A1 with hFc, nominal 6.25 ng/mL, batch 7
hEDAR-mFc (human) [7] = target: hEDAR-mFc (human) (UniProt Q9UNE0); experiment: sandwich ELISA: hEDAR-mFc coated, anti-human IgG (Fc) CH2-HRP detection; EDA-A1 3.13 ng/mL, batch 7
hEDAR-mFc (human) [8] = target: hEDAR-mFc (human) (UniProt Q9UNE0); experiment: sandwich ELISA: hEDAR-mFc coated, anti-human IgG (Fc) CH2-HRP detection; EDA-A1 50 ng/mL, batch 7
hEDAR-mFc (human) [9] = target: hEDAR-mFc (human) (UniProt Q9UNE0); experiment: sandwich ELISA: hEDAR-mFc coated, anti-human IgG (Fc) CH2-HRP detection; EDA-A1 12.5 ng/mL, batch 7
hEDAR-mFc (human) [10] = target: hEDAR-mFc (human) (UniProt Q9UNE0); experiment: sandwich ELISA: hEDAR-mFc coated, anti-human IgG (Fc) CH2-HRP detection; EDA-A1 with hFc, nominal 50 ng/mL, batch 7
hEDAR-mFc (human) [11] = target: hEDAR-mFc (human) (UniProt Q9UNE0); experiment: sandwich ELISA: hEDAR-mFc coated, anti-human IgG (Fc) CH2-HRP detection; EDA-A1 100 ng/mL with hFc 100 ng/mL, batch 5
hEDAR-mFc (human) [12] = target: hEDAR-mFc (human) (UniProt Q9UNE0); experiment: sandwich ELISA: hEDAR-mFc coated, anti-human IgG (Fc) CH2-HRP detection; EDA-A1 100 ng/mL, batch 5
hEDAR-mFc (human) [13] = target: hEDAR-mFc (human) (UniProt Q9UNE0); experiment: sandwich ELISA: hEDAR-mFc coated, anti-human IgG (Fc) CH2-HRP detection; EDA-A1 100 ng/mL, batch 7
hEDAR-mFc (human) [14] = target: hEDAR-mFc (human) (UniProt Q9UNE0); experiment: sandwich ELISA: hEDAR-mFc coated, anti-human IgG (Fc) CH2-HRP detection; EDA-A1 with hFc, nominal 12.5 ng/mL, batch 7
EDI200 (human) [15] = experiment: bridging ECL in NHP serum; antibody 62.5 ng/mL, signal with 1 µg/mL free EDI200 over signal without
Sequence of EDI200 (human) (chain, as listed by the source): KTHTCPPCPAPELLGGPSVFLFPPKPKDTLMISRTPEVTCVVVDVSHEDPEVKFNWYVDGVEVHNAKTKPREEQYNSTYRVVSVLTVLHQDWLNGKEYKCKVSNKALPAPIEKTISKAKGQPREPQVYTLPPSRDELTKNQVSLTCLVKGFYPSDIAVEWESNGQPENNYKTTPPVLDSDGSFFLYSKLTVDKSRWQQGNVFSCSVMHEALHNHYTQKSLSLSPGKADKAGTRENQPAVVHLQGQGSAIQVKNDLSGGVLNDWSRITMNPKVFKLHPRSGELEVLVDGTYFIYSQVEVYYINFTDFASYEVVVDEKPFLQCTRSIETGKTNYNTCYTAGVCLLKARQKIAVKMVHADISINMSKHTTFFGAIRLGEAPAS

EDI200 (human) [16] = experiment: bridging ECL in NHP serum; antibody 125 ng/mL with 1 µg/mL free EDI200
EDI200 (human) [17] = experiment: bridging ECL (biotin-EDI200/SulfoTag-EDI200) in NHP serum; antibody 250 ng/mL
EDI200 (human) [18] = experiment: bridging ECL in NHP serum; antibody 500 ng/mL with 1 µg/mL free EDI200
EDI200 (human) [19] = experiment: bridging ECL in NHP serum; antibody 62.5 ng/mL with 1 µg/mL free EDI200
EDI200 (human) [20] = experiment: bridging ECL in NHP serum; antibody 15.63 ng/mL, signal with 1 µg/mL free EDI200 over signal without
EDI200 (human) [21] = experiment: bridging ECL in NHP serum; antibody 31.25 ng/mL, signal with 1 µg/mL free EDI200 over signal without
EDI200 (human) [22] = experiment: bridging ECL (biotin-EDI200/SulfoTag-EDI200) in NHP serum; antibody 31.25 ng/mL
EDI200 (human) [23] = experiment: bridging ECL in NHP serum; antibody 15.63 ng/mL with 1 µg/mL free EDI200
EDI200 (human) [24] = experiment: bridging ECL (biotin-EDI200/SulfoTag-EDI200) in NHP serum; antibody 7.81 ng/mL
EDI200 (human) [25] = experiment: bridging ECL in NHP serum; antibody 125 ng/mL, signal with 1 µg/mL free EDI200 over signal without
EDI200 (human) [26] = experiment: bridging ECL (biotin-EDI200/SulfoTag-EDI200) in NHP serum; antibody 15.63 ng/mL
EDI200 (human) [27] = experiment: bridging ECL (biotin-EDI200/SulfoTag-EDI200) in NHP serum; antibody 125 ng/mL
EDI200 (human) [28] = experiment: bridging ECL (biotin-EDI200/SulfoTag-EDI200) in NHP serum; antibody 62.5 ng/mL
EDI200 (human) [29] = experiment: bridging ECL (biotin-EDI200/SulfoTag-EDI200) in NHP serum; antibody 500 ng/mL; plate NCO 129.4
EDI200 (human) [30] = experiment: bridging ECL in NHP serum; antibody 250 ng/mL with 1 µg/mL free EDI200
EDI200 (human) [31] = experiment: bridging ECL in NHP serum; antibody 7.81 ng/mL with 1 µg/mL free EDI200
EDI200 (human) [32] = experiment: bridging ECL in NHP serum; antibody 7.81 ng/mL, signal with 1 µg/mL free EDI200 over signal without
EDI200 (human) [33] = experiment: bridging ECL in NHP serum; antibody 500 ng/mL, signal with 1 µg/mL free EDI200 over signal without
EDI200 (human) [34] = experiment: bridging ECL in NHP serum; antibody 31.25 ng/mL with 1 µg/mL free EDI200
EDI200 (human) [35] = experiment: bridging ECL in NHP serum; antibody 250 ng/mL, signal with 1 µg/mL free EDI200 over signal without

Sequence of hEDAR-mFc (human) (Q9UNE0 27-183 limits assumed): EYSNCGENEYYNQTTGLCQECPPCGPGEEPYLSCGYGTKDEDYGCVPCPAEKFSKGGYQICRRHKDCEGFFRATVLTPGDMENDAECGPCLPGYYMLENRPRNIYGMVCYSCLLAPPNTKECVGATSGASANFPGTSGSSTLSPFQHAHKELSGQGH

Mean OD (hEDAR-mFc (human) [1]): 0.119 OD
Mean OD (hEDAR-mFc (human) [2]): 0.18 OD
Mean Conc. (read as EDI200 from the standard curve) (hEDAR-mFc (human) [3]): 4.77 ng/mL
Mean OD (hEDAR-mFc (human) [3]): 0.275 OD
Mean OD (hEDAR-mFc (human) [4]): 0.18 OD
Mean OD (hEDAR-mFc (human) [5]): 0.121 OD
Mean OD (hEDAR-mFc (human) [6]): 0.125 OD
Mean OD (hEDAR-mFc (human) [7]): 0.116 OD
Mean OD (hEDAR-mFc (human) [8]): 0.234 OD
Mean OD (hEDAR-mFc (human) [9]): 0.14 OD
Mean OD (hEDAR-mFc (human) [10]): 0.214 OD
Mean Conc. (read as EDI200 from the standard curve) (hEDAR-mFc (human) [11]): 5.34 ng/mL
Mean OD (hEDAR-mFc (human) [11]): 0.289 OD
Mean Conc. (read as EDI200 from the standard curve) (hEDAR-mFc (human) [12]): 5.43 ng/mL
Mean OD (hEDAR-mFc (human) [12]): 0.292 OD
Mean Conc. (read as EDI200 from the standard curve) (hEDAR-mFc (human) [13]): 6.14 ng/mL
Mean OD (hEDAR-mFc (human) [13]): 0.316 OD
Mean OD (hEDAR-mFc (human) [14]): 0.15 OD
Substance: Recombinant human Ectodysplasin A1 (from UniProt Q92838 160-391) (ligand)

Drug/Non-drug Ratio (EDI200 (human) [15]): 0.94
Mean Signal (EDI200 (human) [16]): 76 signal (ECL)
Mean Signal (EDI200 (human) [17]): 83 signal (ECL)
Mean Signal (EDI200 (human) [18]): 81 signal (ECL)
Mean Signal (EDI200 (human) [19]): 76 signal (ECL)
Drug/Non-drug Ratio (EDI200 (human) [20]): 0.91
Drug/Non-drug Ratio (EDI200 (human) [21]): 0.93
Mean Signal (EDI200 (human) [22]): 81 signal (ECL)
Mean Signal (EDI200 (human) [23]): 74 signal (ECL)
Mean Signal (EDI200 (human) [24]): 85 signal (ECL)
Drug/Non-drug Ratio (EDI200 (human) [25]): 0.93
Mean Signal (EDI200 (human) [26]): 81 signal (ECL)
Mean Signal (EDI200 (human) [27]): 82 signal (ECL)
Mean Signal (EDI200 (human) [28]): 81 signal (ECL)
Mean Signal (EDI200 (human) [29]): 86 signal (ECL)
Mean Signal (EDI200 (human) [30]): 80 signal (ECL)
Mean Signal (EDI200 (human) [31]): 80 signal (ECL)
Drug/Non-drug Ratio (EDI200 (human) [32]): 0.93
Drug/Non-drug Ratio (EDI200 (human) [33]): 0.95
Mean Signal (EDI200 (human) [34]): 76 signal (ECL)
Drug/Non-drug Ratio (EDI200 (human) [35]): 0.96
Substance: mouse anti-human CD106 IgG1 antibody
